Measurements: publication doi:10.1101/2021.04.01.437949 (bioRxiv, 2021)
Values belong to the molecule of their own block, whether it stands above or below them.

T1: TAP-tagged Kap120 (S. cerevisiae, UniProt Q02932 1-1032)
T1 sequence (looked up): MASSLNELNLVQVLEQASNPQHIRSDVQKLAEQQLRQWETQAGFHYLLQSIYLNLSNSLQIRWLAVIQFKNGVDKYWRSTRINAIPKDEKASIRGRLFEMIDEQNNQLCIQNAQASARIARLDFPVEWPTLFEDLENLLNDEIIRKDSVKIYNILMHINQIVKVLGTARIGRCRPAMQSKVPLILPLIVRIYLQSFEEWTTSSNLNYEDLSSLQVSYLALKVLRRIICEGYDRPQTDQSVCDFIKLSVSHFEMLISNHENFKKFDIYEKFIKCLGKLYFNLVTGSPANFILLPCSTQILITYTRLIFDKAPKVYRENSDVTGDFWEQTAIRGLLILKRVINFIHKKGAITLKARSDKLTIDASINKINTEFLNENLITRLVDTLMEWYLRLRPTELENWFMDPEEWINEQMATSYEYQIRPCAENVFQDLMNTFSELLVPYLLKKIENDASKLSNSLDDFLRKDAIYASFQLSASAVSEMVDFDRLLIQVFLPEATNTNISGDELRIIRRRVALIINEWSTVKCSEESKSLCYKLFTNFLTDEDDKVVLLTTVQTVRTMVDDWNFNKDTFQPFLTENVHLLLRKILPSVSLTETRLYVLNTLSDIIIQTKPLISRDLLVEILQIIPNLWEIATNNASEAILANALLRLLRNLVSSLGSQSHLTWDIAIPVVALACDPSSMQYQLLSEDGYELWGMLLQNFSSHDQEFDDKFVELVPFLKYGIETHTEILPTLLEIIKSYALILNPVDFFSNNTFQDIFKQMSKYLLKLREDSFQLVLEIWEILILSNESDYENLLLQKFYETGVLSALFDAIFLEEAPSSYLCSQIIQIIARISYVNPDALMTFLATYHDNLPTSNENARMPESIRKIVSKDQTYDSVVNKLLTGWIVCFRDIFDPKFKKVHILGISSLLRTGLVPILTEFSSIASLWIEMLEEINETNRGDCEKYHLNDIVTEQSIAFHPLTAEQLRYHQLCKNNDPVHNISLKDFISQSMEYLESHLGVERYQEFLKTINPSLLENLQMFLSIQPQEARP

B1: Dhh1 (natural protein, S. cerevisiae (endogenous in yeast), UniProt P39517 1-506, looked up)
chain: MGSINNNFNTNNNSNTDLDRDWKTALNIPKKDTRPQTDDVLNTKGNTFEDFYLKRELLMGIFEAGFEKPSPIQEEAIPVAITGRDILARAKNGTGKTAAFVIPTLEKVKPKLNKIQALIMVPTRELALQTSQVVRTLGKHCGISCMVTTGGTNLRDDILRLNETVHILVGTPGRVLDLASRKVADLSDCSLFIMDEADKMLSRDFKTIIEQILSFLPPTHQSLLFSATFPLTVKEFMVKHLHKPYEINLMEELTLKGITQYYAFVEERQKLHCLNTLFSKLQINQAIIFCNSTNRVELLAKKITDLGYSCYYSHARMKQQERNKVFHEFRQGKVRTLVCSDLLTRGIDIQAVNVVINFDFPKTAETYLHRIGRSGRFGHLGLAINLINWNDRFNLYKIEQELGTEIAAIPATIDKSLYVAENDETVPVPFPIEQQSYHQQAIPQQQLPSQQQFAIPPQQHHPQFMVPPSHQQQQAYPPPQMPSQQGYPPQQEHFMAMPPGQSQPQY
B2: Tail-GFP (Xrn1 Tail, amino acids 351-521, fused to GFP) (domain or fragment, S. cerevisiae, UniProt P22147 351-521, looked up)
chain: EKDDIDVEWFNKQLENISLEGERKRQRVGKKLLVKQQKKLIGSIKPWLMEQLQEKLSPDLPDEEIPTLELPKDLDMKDHLEFLKEFAFDLGLFITHSKSKGSYSLKMDLDSINPDETEEEFQNRVNSIRKTIKKYQNAIIVEDKEELETEKTIYNERFERWKHEYYHDKLK
B3: Pat1 (natural protein, S. cerevisiae (endogenous in yeast), UniProt P25644 1-796, looked up)
chain: MSFFGLENSGNARDGPLDFEESYKGYGEHELEENDYLNDETFGDNVQVGTDFDFGNPHSSGSSGNAIGGNGVGATARSYVAATAEGISGPRTDGTAAAGPLDLKPMESLWSTAPPPAMAPSPQSTMAPAPAPQQMAPLQPILSMQDLERQQRQMQQQFMNFHAMGHPQGLPQGPPQQQFPMQPASGQPGPSQFAPPPPPPGVNVNMNQMPMGPVQVPVQASPSPIGMSNTPSPGPVVGATKMPLQSGRRSKRDLSPEEQRRLQIRHAKVEKILKYSGLMTPRDKDFITRYQLSQIVTEDPYNEDFYFQVYKIIQRGGITSESNKGLIARAYLEHSGHRLGGRYKRTDIALQRMQSQVEKAVTVAKERPSKLKDQQAAAGNSSQDNKQANTVLGKISSTLNSKNPRRQLQIPRQQPSDPDALKDVTDSLTNVDLASSGSSSTGSSAAAVASKQRRRSSYAFNNGNGATNLNKSGGKKFILELIETVYEEILDLEANLRNGQQTDSTAMWEALHIDDSSYDVNPFISMLSFDKGIKIMPRIFNFLDKQQKLKILQKIFNELSHLQIIILSSYKTTPKPTLTQLKKVDLFQMIILKIIVSFLSNNSNFIEIMGLLLQLIRNNNVSFLTTSKIGLNLITILISRAALIKQDSSRSNILSSPEISTWNEIYDKLFTSLESKIQLIFPPREYNDHIMRLQNDKFMDEAYIWQFLASLALSGKLNHQRIIIDEVRDEIFATINEAETLQKKEKELSVLPQRSQELDTELKSIIYNKEKLYQDLNLFLNVMGLVYRDGEISELK
B4: recombinant Kap120-6xHis (natural protein, S. cerevisiae, UniProt Q02932 1-1032, looked up)
chain: T1 sequence (looked up)

Tests used:
[1] = target: B4; assay: pull-down
[2] = target: T1, TAP-tagged Kap120; assay: co-IP
[3] = target: FLAG-tagged Xrn1 (wild type) (S. cerevisiae, UniProt P22147 1-1528); assay: pull-down
Sequence of FLAG-tagged Xrn1 (wild type) (P22147 whole entry): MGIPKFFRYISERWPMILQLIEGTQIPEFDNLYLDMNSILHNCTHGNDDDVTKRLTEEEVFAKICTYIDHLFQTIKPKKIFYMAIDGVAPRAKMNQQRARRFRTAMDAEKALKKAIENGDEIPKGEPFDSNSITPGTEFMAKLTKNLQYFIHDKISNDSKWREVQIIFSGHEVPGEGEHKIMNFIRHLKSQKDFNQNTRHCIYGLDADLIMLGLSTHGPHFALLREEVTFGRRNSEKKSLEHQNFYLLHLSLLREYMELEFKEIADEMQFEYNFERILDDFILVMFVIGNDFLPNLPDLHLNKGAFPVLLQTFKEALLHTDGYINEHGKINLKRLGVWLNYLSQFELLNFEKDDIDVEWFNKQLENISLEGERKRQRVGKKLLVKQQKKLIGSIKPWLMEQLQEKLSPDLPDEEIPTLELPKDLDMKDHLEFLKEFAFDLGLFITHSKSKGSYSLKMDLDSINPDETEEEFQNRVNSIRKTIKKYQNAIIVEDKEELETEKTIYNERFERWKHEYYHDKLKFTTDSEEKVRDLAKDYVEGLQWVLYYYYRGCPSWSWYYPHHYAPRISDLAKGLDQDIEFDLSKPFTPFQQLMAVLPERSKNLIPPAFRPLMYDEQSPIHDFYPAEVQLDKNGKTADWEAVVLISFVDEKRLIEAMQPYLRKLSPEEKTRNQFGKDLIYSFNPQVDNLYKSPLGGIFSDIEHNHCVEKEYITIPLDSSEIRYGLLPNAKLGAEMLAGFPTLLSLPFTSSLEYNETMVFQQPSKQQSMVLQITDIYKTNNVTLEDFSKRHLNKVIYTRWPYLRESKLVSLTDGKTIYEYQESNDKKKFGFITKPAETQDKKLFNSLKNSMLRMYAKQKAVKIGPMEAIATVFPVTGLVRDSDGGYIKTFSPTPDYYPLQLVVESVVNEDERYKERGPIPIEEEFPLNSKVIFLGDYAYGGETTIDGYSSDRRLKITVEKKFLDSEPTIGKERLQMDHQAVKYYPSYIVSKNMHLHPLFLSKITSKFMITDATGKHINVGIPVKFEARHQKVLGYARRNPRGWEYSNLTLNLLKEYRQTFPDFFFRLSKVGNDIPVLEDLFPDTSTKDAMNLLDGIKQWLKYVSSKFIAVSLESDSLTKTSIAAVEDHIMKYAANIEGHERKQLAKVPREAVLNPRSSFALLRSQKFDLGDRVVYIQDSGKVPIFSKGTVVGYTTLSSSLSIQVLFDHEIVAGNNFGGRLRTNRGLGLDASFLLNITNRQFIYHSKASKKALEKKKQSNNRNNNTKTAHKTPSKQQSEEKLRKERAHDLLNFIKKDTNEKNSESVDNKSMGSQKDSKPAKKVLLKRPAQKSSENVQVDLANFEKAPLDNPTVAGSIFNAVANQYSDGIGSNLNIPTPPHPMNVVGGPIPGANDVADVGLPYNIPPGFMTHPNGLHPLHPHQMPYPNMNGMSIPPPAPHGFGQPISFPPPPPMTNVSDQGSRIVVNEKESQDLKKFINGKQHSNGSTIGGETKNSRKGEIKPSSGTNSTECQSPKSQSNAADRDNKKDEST

fold weaker than Xrn1^WT-Kap120 [1]: 4.5 fold
Molecule: FLAG-tagged Xrn1^ΔNLS1/2 (from UniProt P22147 1-1528) (enzyme)

Molecule: B1
fold reduction of the co-IP in Xrn1^ΔNLS1/2 cells against WT cells [2]: ~5 fold

Molecule: B2
binding result [1]: binds

Molecule: B3
fold reduction of the co-IP in Xrn1^ΔNLS1/2 cells against WT cells [2]: ~5 fold

Molecule: B4
binding result [3]: binds
